US20170253670A1

B1: Mov19 IgG (antibody, from a related filing, V domains shown, part only)
VH: QVQLQQSGAELVKPGASVKISCKASGYSFTGYFMNWVKQSHGKSLEWIGRIHPYDGDTFYNQNFKDKATLTVDKSSNTAHMELLSLTSEDFAVYYCTRYDGSRAMDYWGQGTTVTVSS
VL: DIELTQSPASLAVSLGQRAIISCKASQSVSFAGTSLMHWYHQKPGQQPKLLIYRASNLEAGVPTRFSGSGSKTDFTLNIHPVEEEDAATYYCQQSREYPYTFGGGTKLEIK
B2: Farletuzumab (antibody, INN chains, looked up, V domains shown)
VH: EVQLVESGGGVVQPGRSLRLSCSASGFTFSGYGLSWVRQAPGKGLEWVAMISSGGSYTYYADSVKGRFAISRDNAKNTLFLQMDSLRPEDTGVYFCARHGDDPAWFAYWGQGTPVTVSS
VL: DIQLTQSPSSLSASVGDRVTITCSVSSSISSNNLHWYQQKPGKAPKPWIYGTSNLASGVPSRFSGSGSGTDYTFTISSLQPEDIATYYCQQWSSYPYMYTFGQGTKVEIKR

Assays:
[1] = molecular target: cynomolgus FolR1 monovalent Fc fusion, biotinylated (cynomolgus); experiment: SPR Biacore, bivalent avidity, antigen on chip
Sequence of cynomolgus FolR1 monovalent Fc fusion, biotinylated (cynomolgus) (chain, as listed by the source limits assumed, form in doubt): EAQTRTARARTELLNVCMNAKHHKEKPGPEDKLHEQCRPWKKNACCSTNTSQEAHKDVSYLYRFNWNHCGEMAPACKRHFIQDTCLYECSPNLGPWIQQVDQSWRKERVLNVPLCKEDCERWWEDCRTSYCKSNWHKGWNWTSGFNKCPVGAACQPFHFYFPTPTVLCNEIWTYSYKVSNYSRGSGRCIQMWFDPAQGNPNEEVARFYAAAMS

[2] = molecular target: human FolR1 monovalent Fc fusion, biotinylated (human) (UniProt P15328); experiment: SPR Biacore, bivalent avidity, antigen on chip
Sequence of human FolR1 monovalent Fc fusion, biotinylated (human) (P15328 25-233 limits assumed): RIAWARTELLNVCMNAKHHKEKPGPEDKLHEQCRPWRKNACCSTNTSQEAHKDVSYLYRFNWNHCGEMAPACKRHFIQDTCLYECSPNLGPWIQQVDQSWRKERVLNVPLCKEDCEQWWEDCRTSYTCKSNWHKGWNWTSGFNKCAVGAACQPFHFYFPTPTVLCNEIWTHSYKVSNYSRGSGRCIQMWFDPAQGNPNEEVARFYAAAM

[3] = molecular target: cynomolgus FolR1 monovalent Fc fusion, biotinylated (cynomolgus); experiment: SPR Biacore, bivalent avidity (apparent KD), antigen on chip
[4] = molecular target: human FolR1 monovalent Fc fusion, biotinylated (human) (UniProt P15328); experiment: as above
[5] = molecular target: cynomolgus FolR1 monovalent Fc fusion, biotinylated (cynomolgus); experiment: SPR Biacore, monovalent, binder captured via anti-Fab
[6] = molecular target: human FolR1 monovalent Fc fusion, biotinylated (human) (UniProt P15328); experiment: as above

Binder	koff [1] [s⁻¹]	kon [1] [M⁻¹ s⁻¹]	koff [2] [s⁻¹]	kon [2] [M⁻¹ s⁻¹]	Kd [3] [pM]	Kd [4] [pM]	Kd [5] [pM]	koff [5] [s⁻¹]	kon [5] [M⁻¹ s⁻¹]	Kd [6] [pM]	koff [6] [s⁻¹]	kon [6] [M⁻¹ s⁻¹]
B1	0.000139	1.29e+06	0.000121	861000	108	140	650	0.000193	297000	550	0.000159	289000
B2	0.000868	1.33e+06	0.0009	1.23e+06	650	–	67300	0.0373	553000	–	0.023	417000
